The text below walks through data of patent publication EP0662514A1.

The target of assay [1] is Chymotrypsin (bovine) (Bovine) (UniProt P00766). The experiment in a line: cell-based or functional assay.
Assay [2] concerns the target Trypsin (bovine) (Bovine) (UniProt P00760). Briefly: cell-based or functional assay.
In assay [3] the target is Factor Xa (human) (Human) (UniProt P00742). Briefly: cell-based or functional assay.
Assay [4] concerns the target Chymotrypsin (bovine) (Bovine) (UniProt P00766). Briefly: enzyme inhibition at equilibrium, apparent Ki from fit to the tight binding inhibitor equation.
A further assay has as its target Plasmin (human) (Human) (UniProt P00747). Described as above.
The target of assay [5] is Tissue kallikrein (porcine) (Porcine) (UniProt P00752). Described as above.
Assay [6] has as its target Trypsin (bovine) (Bovine) (UniProt P00760). The description is as above.
The target of assay [7] is Cathepsin G (human) (Human) (UniProt P08311). The assay is described as above.
UniProt P08311, sequence (P08311 21-244 limits assumed): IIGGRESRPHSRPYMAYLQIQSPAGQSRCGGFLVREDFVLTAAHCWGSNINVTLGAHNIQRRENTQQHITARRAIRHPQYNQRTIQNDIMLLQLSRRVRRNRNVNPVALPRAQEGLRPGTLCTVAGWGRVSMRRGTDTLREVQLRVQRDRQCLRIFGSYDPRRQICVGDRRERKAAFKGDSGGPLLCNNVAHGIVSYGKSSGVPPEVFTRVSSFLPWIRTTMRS

UniProt P00742, sequence (P00742 41-488 limits assumed): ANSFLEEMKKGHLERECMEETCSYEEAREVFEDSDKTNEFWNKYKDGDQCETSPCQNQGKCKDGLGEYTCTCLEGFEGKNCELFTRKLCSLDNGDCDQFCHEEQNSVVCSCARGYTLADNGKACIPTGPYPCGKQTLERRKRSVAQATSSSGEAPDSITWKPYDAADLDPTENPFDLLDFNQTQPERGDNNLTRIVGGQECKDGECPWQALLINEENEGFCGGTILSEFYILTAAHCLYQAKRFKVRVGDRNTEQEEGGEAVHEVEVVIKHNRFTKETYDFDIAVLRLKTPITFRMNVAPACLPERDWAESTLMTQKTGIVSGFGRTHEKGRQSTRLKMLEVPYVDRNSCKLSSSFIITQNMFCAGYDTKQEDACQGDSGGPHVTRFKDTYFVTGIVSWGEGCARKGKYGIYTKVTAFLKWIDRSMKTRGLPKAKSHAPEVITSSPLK
UniProt P00760, sequence (P00760 24-246): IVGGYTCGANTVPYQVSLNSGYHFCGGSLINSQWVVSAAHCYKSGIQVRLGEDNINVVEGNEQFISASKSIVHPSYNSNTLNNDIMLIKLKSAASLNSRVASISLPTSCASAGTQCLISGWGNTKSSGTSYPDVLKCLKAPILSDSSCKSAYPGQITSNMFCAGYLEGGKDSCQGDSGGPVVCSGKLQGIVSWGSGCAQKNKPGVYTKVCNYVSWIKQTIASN
UniProt P00747, sequence (P00747 97-810 limits assumed): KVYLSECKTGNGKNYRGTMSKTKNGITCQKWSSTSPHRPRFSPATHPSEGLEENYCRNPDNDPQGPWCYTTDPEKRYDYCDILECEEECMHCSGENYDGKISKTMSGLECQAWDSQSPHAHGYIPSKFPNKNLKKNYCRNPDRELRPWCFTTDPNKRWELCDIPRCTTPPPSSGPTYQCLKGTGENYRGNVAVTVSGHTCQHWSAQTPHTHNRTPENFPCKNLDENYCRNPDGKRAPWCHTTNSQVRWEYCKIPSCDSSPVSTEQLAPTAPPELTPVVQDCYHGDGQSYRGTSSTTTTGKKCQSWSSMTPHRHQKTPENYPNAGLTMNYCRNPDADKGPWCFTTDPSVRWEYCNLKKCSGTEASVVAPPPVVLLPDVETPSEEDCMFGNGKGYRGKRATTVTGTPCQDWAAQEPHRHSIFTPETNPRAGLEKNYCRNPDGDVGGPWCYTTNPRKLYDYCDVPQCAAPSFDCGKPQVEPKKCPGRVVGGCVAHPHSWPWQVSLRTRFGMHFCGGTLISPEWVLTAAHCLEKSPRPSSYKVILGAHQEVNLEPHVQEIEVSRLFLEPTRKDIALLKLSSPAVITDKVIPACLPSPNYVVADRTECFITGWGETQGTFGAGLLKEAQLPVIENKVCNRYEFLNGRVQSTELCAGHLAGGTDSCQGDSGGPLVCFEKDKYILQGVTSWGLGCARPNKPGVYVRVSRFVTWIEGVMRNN
UniProt P00752, sequence (P00752 8-246 limits assumed): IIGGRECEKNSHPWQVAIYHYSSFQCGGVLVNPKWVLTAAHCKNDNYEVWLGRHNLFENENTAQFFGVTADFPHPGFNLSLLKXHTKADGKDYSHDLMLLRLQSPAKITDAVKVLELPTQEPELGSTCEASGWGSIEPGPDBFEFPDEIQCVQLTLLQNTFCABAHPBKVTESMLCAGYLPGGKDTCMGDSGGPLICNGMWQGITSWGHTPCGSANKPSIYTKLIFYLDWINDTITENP

As to hirustasin, the SA [IU/mg] (specific inhibitory activity against chymotrypsin, Mono S pool) in assay [1] worked out at 0.15 IU/mg. In assay [2], the SA [IU/mg] (specific inhibitory activity against trypsin, Mono S pool) worked out at 2.7 IU/mg. The Partial Thromboplastin Time, hirustasin at 1.3 mM; buffer 47.3 s in assay [3] was determined as 47.9 s. In addition, in assay [3], the Quick (prothrombin time), hirustasin at 1.3 mM; buffer 79 % worked out at 80%. Also, the Ki in assay [4] stood at 6.4 nM; with Plasmin (human) (Human) it was 138 nM; in assay [5] it was 13 nM; in assay [6], 7 nM; in assay [7], 2.9 nM.
